Experimental data as given in patent US20030148951A1.

Molecular target: putative EMR2 ligand
Experiment: flow cytometry on human monocyte-derived macrophages; abolished by EGTA

biotinylated soluble EMR2(EGF-1,2,3,4,5) protein-fluorescent bead complex (from UniProt Q9UHX3 24-260) (receptor)
percent of cells bound: 45 to 50%
